# Reference: paper PMC12409425, “Two distinct protein-protein interfaces drive cooperative binding of the herpes simplex virus protein ICP8 to ssDNA, filament formation and annealing essential for viral replication” (The Journal of Biological Chemistry, 2025)
# Residue numbers refer to the chain shown, from its start. Names and notes keep the numbering of the source.
# T1: ICP8Δ60 (HSV-1 ICP8 lacking the 60-aa C-terminal tail) (herpes simplex virus type 1 (HSV-1), …, UniProt P17470 1-1136, in the MST only: labelled on amines with the red dye NT-647-NHS (RED-NHS Monolith kit); unlabelled in the thermal shift assays)
# T1 construct: the tail is printed as residues 1136-1196; source: Sf9 insect cells infected with recombinant baculovirus (pFastBac1-ICP8Δ60), purified (SP-Sepharose cation exchange)
# T1 sequence: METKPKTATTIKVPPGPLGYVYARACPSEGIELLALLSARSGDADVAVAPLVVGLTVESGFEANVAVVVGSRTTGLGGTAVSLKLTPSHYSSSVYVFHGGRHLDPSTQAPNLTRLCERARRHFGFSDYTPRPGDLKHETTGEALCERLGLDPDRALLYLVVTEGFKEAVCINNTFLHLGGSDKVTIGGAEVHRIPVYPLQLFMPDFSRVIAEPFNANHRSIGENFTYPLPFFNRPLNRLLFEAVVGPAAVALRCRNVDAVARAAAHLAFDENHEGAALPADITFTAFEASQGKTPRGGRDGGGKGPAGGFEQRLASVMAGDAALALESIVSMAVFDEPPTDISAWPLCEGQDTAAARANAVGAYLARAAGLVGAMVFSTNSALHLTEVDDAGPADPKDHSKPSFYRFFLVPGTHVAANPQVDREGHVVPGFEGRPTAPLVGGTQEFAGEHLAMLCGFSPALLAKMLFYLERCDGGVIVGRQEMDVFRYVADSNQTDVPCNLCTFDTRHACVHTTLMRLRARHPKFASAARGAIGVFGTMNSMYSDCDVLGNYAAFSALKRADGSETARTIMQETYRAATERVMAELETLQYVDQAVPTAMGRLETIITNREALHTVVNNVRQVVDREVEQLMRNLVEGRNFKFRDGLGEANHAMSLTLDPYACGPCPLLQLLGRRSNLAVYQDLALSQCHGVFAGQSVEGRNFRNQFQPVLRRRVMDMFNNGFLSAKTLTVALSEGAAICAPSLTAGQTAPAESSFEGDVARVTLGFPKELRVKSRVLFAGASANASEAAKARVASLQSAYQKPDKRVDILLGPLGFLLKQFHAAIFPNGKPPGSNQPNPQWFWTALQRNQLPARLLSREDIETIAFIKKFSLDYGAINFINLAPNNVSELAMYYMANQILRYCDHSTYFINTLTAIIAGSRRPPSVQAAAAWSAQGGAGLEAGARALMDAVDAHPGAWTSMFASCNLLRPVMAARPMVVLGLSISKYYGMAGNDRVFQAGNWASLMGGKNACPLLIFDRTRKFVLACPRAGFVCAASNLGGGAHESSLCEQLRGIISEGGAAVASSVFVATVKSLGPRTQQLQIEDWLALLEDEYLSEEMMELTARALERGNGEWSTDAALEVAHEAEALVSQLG
# B1: ICP8-CTD WT (His-tagged entire C-terminal domain of ICP8, residues 1036-1196) (domain or fragment)
# chain: AASNLGGGAHESSLCEQLRGIISEGGAAVASSVFVATVKSLGPRTQQLQIEDWLALLEDEYLSEEMMELTARALERGNGEWSTDAALEVAHEAEALVSQLGNAGEVFNFGDFGCEDDNATPFGGPGAPGPAFAGRKRAFHGDDPFGEGPPDKKGDLTLDML
# notes: ICP8 (UL29) of HSV-1, entire C-terminal domain with the helical bundle and the intact 60-aa disordered tail, residues 1036-1196; The methods give no limits for the pET28a construct and give aa 1049-1135 for the Flag-tagged CTD of the cell experiments; also called WT ICP8-CTD; WT CTD; source: E. coli BL21 (pET28a-His-ICP8-CTD, codon optimised), purified (Talon cobalt beads, Superose 12 gel …)
# B2: ICP8-CTD D1087A (domain or fragment)
# chain: B1 chain with D52A
# notes: ICP8 (UL29) of HSV-1, C-terminal domain, residues 1036-1196, with D1087A; source: E. coli BL21 (pET28a-His-ICP8-CTD mutant), purified (Talon cobalt beads, Superose 12 gel filtration)
# B3: ICP8-CTD FNF→AAA (domain or fragment)
# chain: B1 chain with F107A, N108A, F109A
# notes: ICP8 (UL29) of HSV-1, C-terminal domain, residues 1036-1196, with the triple alanine substitution of F1142, N1143 and F1144; the text has 1142-1144; also called FNF→AAA CTD; source: E. coli BL21 (pET28a-His-ICP8-CTD mutant), purified (Talon cobalt beads, Superose 12 gel filtration)
# B4: ICP8-CTD Δ60 (domain or fragment)
# chain: AASNLGGGAHESSLCEQLRGIISEGGAAVASSVFVATVKSLGPRTQQLQIEDWLALLEDEYLSEEMMELTARALERGNGEWSTDAALEVAHEAEALVSQLG
# notes: ICP8 (UL29) of HSV-1, C-terminal domain (begins at 1036) with the last 60 residues deleted; source: E. coli BL21 (pET28a-His-ICP8-CTDΔ60), purified (Talon cobalt beads, Superose 12 gel filtration)
# B5: ICP8 WT, full length (natural protein)
# chain: METKPKTATTIKVPPGPLGYVYARACPSEGIELLALLSARSGDADVAVAPLVVGLTVESGFEANVAVVVGSRTTGLGGTAVSLKLTPSHYSSSVYVFHGGRHLDPSTQAPNLTRLCERARRHFGFSDYTPRPGDLKHETTGEALCERLGLDPDRALLYLVVTEGFKEAVCINNTFLHLGGSDKVTIGGAEVHRIPVYPLQLFMPDFSRVIAEPFNANHRSIGENFTYPLPFFNRPLNRLLFEAVVGPAAVALRCRNVDAVARAAAHLAFDENHEGAALPADITFTAFEASQGKTPRGGRDGGGKGPAGGFEQRLASVMAGDAALALESIVSMAVFDEPPTDISAWPLCEGQDTAAARANAVGAYLARAAGLVGAMVFSTNSALHLTEVDDAGPADPKDHSKPSFYRFFLVPGTHVAANPQVDREGHVVPGFEGRPTAPLVGGTQEFAGEHLAMLCGFSPALLAKMLFYLERCDGGVIVGRQEMDVFRYVADSNQTDVPCNLCTFDTRHACVHTTLMRLRARHPKFASAARGAIGVFGTMNSMYSDCDVLGNYAAFSALKRADGSETARTIMQETYRAATERVMAELETLQYVDQAVPTAMGRLETIITNREALHTVVNNVRQVVDREVEQLMRNLVEGRNFKFRDGLGEANHAMSLTLDPYACGPCPLLQLLGRRSNLAVYQDLALSQCHGVFAGQSVEGRNFRNQFQPVLRRRVMDMFNNGFLSAKTLTVALSEGAAICAPSLTAGQTAPAESSFEGDVARVTLGFPKELRVKSRVLFAGASANASEAAKARVASLQSAYQKPDKRVDILLGPLGFLLKQFHAAIFPNGKPPGSNQPNPQWFWTALQRNQLPARLLSREDIETIAFIKKFSLDYGAINFINLAPNNVSELAMYYMANQILRYCDHSTYFINTLTAIIAGSRRPPSVQAAAAWSAQGGAGLEAGARALMDAVDAHPGAWTSMFASCNLLRPVMAARPMVVLGLSISKYYGMAGNDRVFQAGNWASLMGGKNACPLLIFDRTRKFVLACPRAGFVCAASNLGGGAHESSLCEQLRGIISEGGAAVASSVFVATVKSLGPRTQQLQIEDWLALLEDEYLSEEMMELTARALERGNGEWSTDAALEVAHEAEALVSQLGNAGEVFNFGDFGCEDDNATPFGGPGAPGPAFAGRKRAFHGDDPFGEGPPDKKGDLTLDML
# notes: also called WT ICP8; full-length ICP8
# Experiments:
# [1] = target: T1, ICP8Δ60 (HSV-1 ICP8 lacking the 60-aa …); assay: label-free thermal shift (nanoDSF, Tycho NT.6); as a1 (1:10 M ratio), with 1.2 M excess of a 19-mer ssDNA added to the preformed binary complex; ΔTi counted against apo ICP8Δ60 without ssDNA (ssDNA alone gives 1.1 °C); conditions: both partners purified
# [2] = target: T1, ICP8Δ60 (HSV-1 ICP8 lacking the 60-aa …); assay: label-free thermal shift (nanoDSF), dose series refitted with MoltenProt; 5 μM ICP8Δ60 preincubated with 10 to 100 μM CTD fragment (1:2 to 1:20 M ratio) for 3 h at room temperature; two-state reversible unfolding model; conditions: both partners purified
# [3] = target: T1, ICP8Δ60 (HSV-1 ICP8 lacking the 60-aa …); assay: label-free thermal shift (nanoDSF, Tycho NT.6); 5 μM ICP8Δ60 with a molar excess of CTD fragment (1:10 M ratio), no ssDNA; shift of the inflection temperature Ti of ICP8Δ60; 20 mM Na phosphate pH 7.6, 100 mM NaCl, 100 μM EDTA, 1 mM TCEP, 10% glycerol, 5 mM MgCl2; heated at 30 °C/min; conditions: both partners purified
# [4] = target: T1, ICP8Δ60 (HSV-1 ICP8 lacking the 60-aa …); assay: MST; ICP8Δ60 labelled with NT-647-NHS at 20 nM or 50 nM, unlabelled CTD fragment titrated from low nanomolar to high micromolar; 20 mM sodium phosphate pH 7.5, 100 mM NaCl, 0.1 mM EDTA, 2 mM DTT, 5 mM MgCl2, 0.05% Tween 20; 30 min at RT; one site binding model; conditions: both partners purified
# [5] = target: the molecule itself; assay: negative-stain electron microscopy of filament formation; 0.5 μM protein overnight at 4 °C in 20 mM HEPES-KOH pH 7.5, 100 mM NaCl, 10% glycerol, 1 mM DTT, 0.1 mM EDTA, 5 mM MgCl2; uranyl acetate stain; no DNA
# ICP8Δ60 = ICP8Δ60 (Herpes simplex virus type 1 (KOS), UniProt P17470 1-1136); assay: MST; 20 nM DNA; EMSA: 20 mM HEPES pH 7.5, 150 mM KCl, 2 mM EDTA, 1 mM TCEP, 6% Ficoll, on ice 30 min, gel at 4 °C; thermal shift: 20 mM Na phosphate (SI: HEPES) pH 7.6, 100 mM; conditions: protein: recombinant; tags: none stated; label: 5' Cy5; single strand
# ICP8 WT = ICP8 WT (Herpes simplex virus type 1 (KOS), UniProt P17470 1-1196); assay: EMSA; cooperative supershifted band present; EMSA: 20 mM HEPES pH 7.5, 150 mM KCl, 2 mM EDTA, 1 mM TCEP, 6% Ficoll, on ice 30 min, gel at 4 °C; thermal shift: 20 mM Na phosphate (SI: HEPES) pH 7.6, 100 mM; conditions: protein: recombinant; tags: none stated; chain copies: 4; label: Cy5; single strand
Binder,"ΔTi of ICP8Δ60 (Ti complex - Ti apo), + ssDNA [1] [°C]","ΔTi of ICP8Δ60 (Ti complex - Ti apo), - ssDNA [3] [°C]",Kd [4] [µM],further results
B1,2.9,2.1,0.147,Ti of ICP8Δ60 at 1:2 ratio (ICP8Δ60 alone 51.5) [2]: 52.1 ± 0.1 °C; Ti of ICP8Δ60 at 1:5 ratio (ICP8Δ60 alone 51.5) [2]: 52.7 ± 0.1 °C; Ti of ICP8Δ60 at 1:10 ratio (ICP8Δ60 alone 51.5) [2]: 53.3 ± 0.1 °C; Ti of ICP8Δ60 at 1:20 ratio (ICP8Δ60 alone 51.5) [2]: 53.9 ± 0.1 °C
B2,2.4,1,1.55,
B3,1.9,0.6,21.1,
B4,2,0.7,53.5,
B5,,,,binding result [5]: binds
TTTTTTTTTTTTTTTTTTTTTTTTT (ssDNA) [Cy5-25-mer poly(dT)],,,,Kd (ICP8Δ60): 0.07 µM
TTTTTTTTTTTTTTTTTTTTTTTTTTTTTTTTTTTTTTTTTTTTTTTTTT (ssDNA) [Cy5-50-mer dT],,,,binding result (ICP8 WT): binds
